Laboratory results published in publication PMC8041823, “Structural comparison of Acinetobacter baumannii β-ketoacyl-acyl carrier protein reductases in fatty acid and aryl polyene biosynthesis” (Scientific Reports, 2021).

Target: T1, Acinetobacter baumannii ApeQ (β-ketoacyl-ACP reductase of the aryl polyene biosynthesis gene cluster) (Acinetobacter baumannii (clinical CRAB …))
T1 construct: ApeQ of A. baumannii, amplified from genomic DNA of the clinical carbapenem-resistant strain C1 with primers designed on the A. baumannii ACICU genome; NCBI ACC55845.1; Cloned NdeI/XhoI into pET28a; His-tag removed with thrombin; Residues of the thrombin site may be left at the N-terminus; also called AbApeQ; source: E. coli BL21 (DE3), purified (Chelating Sepharose, thrombin, Q-Sepharose anion …)
Test: ITC; 2 mM holo ACP1 titrated into 0.1 mM reductase; 20 mM Tris pH 8, 100 mM NaCl, 2 mM NADPH; 25 °C; MicroCal 200
Conditions: both partners purified

B1: holo ACP1 (acyl carrier protein 1 of the A. baumannii aryl polyene biosynthesis gene cluster) (natural protein)
chain: MSNLADELKQMIIDVLALEDITIADIDTEAPLFGEGLGLDSIDALELGLALKKRYNIHLNAESDETKQHFKSIQSLVALVEAQQKS
modifications: holo form (phosphopantetheine arm; made by co-expression with holo-ACP synthase AbAcpS); residue not stated
- Kd: ~80 µM
- dH: 3.05 kcal/mol
- stoichiometry N: 1.11
